Laboratory results: patent US9598483B2, “Monoclonal antibody binding specifically to DLL4 and use thereof” (ABLBIO, priority 2012, dated 2017)
Entries after “also recorded” stand apart in the source; their conditions may differ.

B1: MLCK-2: human monoclonal anti-DLL4 antibody; heavy chain variable region SEQ ID NO: 5, light chain variable region SEQ ID NO: 19 (antibody, V domains shown)
VH: EVQLLESGGGLVQPGGSLRLSCAASGFTFSDYAMSWVRQAPGKGLEWVSWIYSGSGNKYYADSVKGRFTISRDNSKNTLYLQMNSLRAEDTAVYYCARADWPFDYWGQGTLVTVSS
VL: QSVLTQPPSASGTPGQRVTISCTGSSSNIGSNDVTWYQQLPGTAPKLLIYADSKRPSGVPDRFSGSKSGTSASLAISGLRSEDEADYYCGTWDYSLSAYVFGGGTKLTVL
modifications: a heavy chain variable region of MLCK-2; a light chain variable region of MLCK-2
B2: MLCK-1: human monoclonal anti-DLL4 antibody; heavy chain variable region SEQ ID NO: 1, light chain variable region SEQ ID NO: 15 (antibody, V domains shown)
VH: EVQLLESGGGLVQPGGSLRLSCAASGFTFSDYAMSWVRQAPGKGLEWVSWIYSDDGNKYYADSVKGRFTISRDNSKNTLYLQMNSLRAEDTAVYYCARADPPFDYWGQGTLVTVSS
VL: QSVLTQPPSASGTPGQRVTISCTGSSSNIGSNNVSWYQQLPGTAPKLLIYSDNNRPSGVPDRFSGSKSGTSASLAISGLRSEDEADYYCATWDSSLNGYVFGGGTKLTVL
modifications: a heavy chain variable region of MLCK-1; a light chain variable region of MLCK-1
B3: MLCK-3: human monoclonal anti-DLL4 antibody; heavy chain variable region SEQ ID NO: 8, light chain variable region SEQ ID NO: 23 (antibody, V domains shown)
VH: EVQLLESGGGLVQPGGSLRLSCAASGFTFSDYAMSWVRQAPGKGLEWVSWIYYDSGSKYYADSVKGRFTISRDNSKNTLYLQMNSLRAEDTAVYYCARADLPFDYWGQGTLVTVSS
VL: QSVLTQPPSASGTPGQRVTISCSGSSSNIGNNAVTWYQQLPGTAPKLLIYSDNHRPSGVPDRFSGSKSGTSASLAISGLRSEDEADYYCGTWDASLSGYVFGGGTKLTVL
modifications: a heavy chain variable region of MLCK-3; a light chain variable region of MLCK-3
B4: MLCK-4: human monoclonal anti-DLL4 antibody; heavy chain variable region SEQ ID NO: 11, light chain variable region SEQ ID NO: 27 (antibody, V domains shown)
VH: EVQLLESGGGLVQPGGSLRLSCAASGFTFSNYAMSWVRQAPGKGLEWVSWIYHGGGDTYYADSVKGRFTISRDNSKNTLYLQMNSLRAEDTAVYYCARGPNYTFGKPFDYWGQGTLVTVSS
VL: QSVLTQPPSASGTPGQRVTISCRGSPSNIGNNTVYWYQQLPGTAPKLLIYSDSQRPSGVPDRFSGSKSGTSASLAISGLRSEDEADYYCGSWDYSLSAYVFGGGTKLTVL
modifications: a heavy chain variable region of MLCK-4; a light chain variable region of MLCK-4

What was measured:
[1] = molecular target: T1, human DLL4-His bound to plate-coated Notch 1-Fc (Homo sapiens, UniProt Q9NR61); test: ELISA-based solution competition (neutralization) test, DLL4 binding to hNotch-1-hFc; conditions: antibody concentration of 0.1 μM
T1 construct: The DLL4 antigen protein comprises 27th to 522nd amino acid residues of DLL4; purchased R&D System 1506-D4/CF
Experimental: The neutralization effects of the anti-DLL4 antibodies were evaluated using an ELISA-based solution competition test.
Each well of a 96-well microtiter plate (Nunc-Immuno Plate, NUNC, Rochester, N.Y.) was coated with 100 μl of 500 ng/ml of hNotch-1-hFc protein (R&D Systems) (diluted in PBS) at 4° C. overnight, and non-specific binding sites were blocked with BSA for 2 hours.
The anti-DLL4 antibody (purified protein) on the 96-well microtiter plate was premixed with serial dilutions of antigen protein (DLL4 antigen, 600 ng/m) at an antibody concentration ranging from 0 nM to 140 nM. The antigen/antibody mixture was incubated for 30 minutes, and then transferred to a microtiter plate precoated with the DLL4 receptor hNotch-1 protein (50 ng/well) in order to measure free […]. Then, the plate was incubated for 2 hours and washed five times with 0.05% tween 20-containing PBS. In order to detect the DLL4 antigen bound to the plate, an HRP-conjugated His […] polyclonal antibody reagent (Roche applied science) was diluted at a ratio of 1:500, and the washed microtiter plate was treated with the diluted antibody reagent, and then allowed to react at 37° C. for 1 hour. Then, color development was performed using a colorimetric substrate (3,3′,5,5′-tetramethylbenzidine; Sigma-Aldrich Co.), and the enzymatic reaction was stopped using 0.5 mol/l of sulfuric acid. The amounts of antibodies required to achieve a 50% decrease in human DLL4-His bound to plate-coated Notch 1-Fc (IC50) are shown in Table 1 below.

[2] = tested on: human umbilical vein endothelial cell (HUVEC); test: HUVEC proliferation assay on rhDLL4-coated plate (CCK-8); assay type: cell-based; conditions: rhDLL4-coated plate 1 μg/ml; MLCK-2 mAb 20 μg/ml; 96 hours
Experimental: In order to investigate the effect of DLL4-binding antibodies on proliferation of human umbilical vein endothelial cell (HUVEC), a representative anti-DLL4 antibody, MLCK-2 antibody, was analyzed for the effect thereof on proliferation of HUVEC.
To be specific, human umbilical vein endothelial cell (HUVEC) was purchased from Lonza to be used in this experiment. T-flask (Nunc) was coated with PBS buffer (Gibco) added with 1% gelatin (Sigma) at a room temperature for 4 to 6 hours, washed with PBS, and then it was used for culturing HUVECs. EBM-2 (Lonza) supplemented with EGM-2 Single Quot (Lonza) was used as a culture medium, density of a cell culture was remained below 80%, and the cells were cultured at 37° C. in a 5% CO2 incubator. The cells before passage 6 were used for this experiment. HUVEC proliferation assay was done by following process. First, to prepare the hDLL4-coated plate, one day before conducting the experiment, rhDLL4 (R&D systems) was diluted in a carbonate buffer to a final concentration of 1 μg/ml in a 96-well plate (BD), where 100 μl of the diluted rhDLL4 was inoculated per each well, and the plate was incubated at 4° C. overnight. […] Using the apparatus SpectraMax 190 (Molecular Devices), the absorption of the sample at 450 nm-650 nm was measured and the levels of cell proliferation were compared among different test groups.

[3] = tested on: DLL4/Notch signaling pathway; test: Western blotting of NICD in HUVECs on rhDLL4-coated plate (DLL4/Notch signaling pathway); assay type: cell-based, human; conditions: 20 μg/ml MLCK-2 mAb
From the text: In Notch signaling, when DLL4 binds to a Notch receptor, this causes a […] change in the Notch receptor leading to the cleavage thereof, and then an intracellular domain of Notch (NICD) enters the nucleus and mediates a Notch signaling. In this regard, it was confirmed whether the anti-DLL4 antibody of the present invention could inhibit the binding between DLL4 and a Notch receptor, thereby disrupting the Notch signaling through monitoring the inhibition of a Notch receptor cleavage as below.
To be specific, in order to determine the inhibitory activity of the DLL4-binding antibodies against the DLL4/Notch signaling pathway, the inhibition of signaling pathway in HUVECs was analyzed in the present experiment. One day before conducting experiment, a recombinant human DLL4 (rhDLL4, R&D systems) was diluted with carbonate buffer to a final concentration of 1 μg/ml, and then 1 ml/well of the diluted rhDLL4 was added to a 6-well plate (BD) and incubated at 4° C. overnight. […]
Subsequently, the plate was put on ice and HUVECs were collected from each well using a scraper and put into a 1.5 ml tube and stored in ice. […] For SDS-PAGE analysis, the supernatant was added to 5×SDS sample buffer and boiled at 100° c. for 10 minutes analyzed by SDS-PAGE. […]

T1 sequence (Q9NR61 27-522): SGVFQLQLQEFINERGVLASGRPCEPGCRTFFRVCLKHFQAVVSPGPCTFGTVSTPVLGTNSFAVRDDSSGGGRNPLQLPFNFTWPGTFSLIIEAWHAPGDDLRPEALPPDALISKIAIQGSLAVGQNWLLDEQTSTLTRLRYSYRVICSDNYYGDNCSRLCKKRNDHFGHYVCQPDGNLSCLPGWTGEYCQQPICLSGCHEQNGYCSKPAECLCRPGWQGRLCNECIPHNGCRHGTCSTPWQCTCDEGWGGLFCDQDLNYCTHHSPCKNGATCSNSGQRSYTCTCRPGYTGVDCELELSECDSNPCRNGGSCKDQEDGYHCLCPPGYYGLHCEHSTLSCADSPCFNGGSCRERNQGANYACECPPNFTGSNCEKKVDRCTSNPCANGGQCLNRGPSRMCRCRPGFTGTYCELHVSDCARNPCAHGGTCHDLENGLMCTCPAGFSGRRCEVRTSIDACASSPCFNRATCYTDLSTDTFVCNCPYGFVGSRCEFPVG

Molecule	blocking of the bindings between DLL4 and human Notch 1 receptor [1]	effect on DLL4-mediated inhibition of HUVEC proliferation [2]	level of NICD / Notch signaling (western blotting) [3]
B1	blocked most of the bindings	blocks the DLL4-mediated suppression of HUVEC proliferation	reduced the level of NICD; also recorded: inhibits Notch signaling
B2	blocked most of the bindings		
B3	blocked most of the bindings		
B4	blocked most of the bindings		
